Substitutions are numbered along the chain they refer to. Names may count otherwise. Values belong to the molecule of their own block, whether it stands above or below them.
Key:
[1] = target: Rnd1 GTPase, wild type, construct of this paper (UniProt Q92730); test: Isothermal titration calorimetry; conditions: pH 7.0, 25 °C, 50 mM NaCl, 4 mM MgCl2, 50 mM phosphate buffer
[2] = target: Rnd1 GTPase as used in the quoted work (ref 39, Hota & Buck 2009) (UniProt Q92730); test: Not stated in this article; conditions: cited from earlier work
Rnd1 GTPase as used in the quoted work (ref 39, Hota & Buck 2009), sequence (Q92730 whole entry, the tested form may be a part): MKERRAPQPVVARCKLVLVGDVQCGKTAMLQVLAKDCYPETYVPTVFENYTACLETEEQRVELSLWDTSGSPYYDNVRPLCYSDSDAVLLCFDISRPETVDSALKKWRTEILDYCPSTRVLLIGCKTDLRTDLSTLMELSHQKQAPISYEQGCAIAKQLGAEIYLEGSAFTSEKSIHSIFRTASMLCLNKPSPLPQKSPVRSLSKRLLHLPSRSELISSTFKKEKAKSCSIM

[3] = target: Rnd1 GTPase (residues 5-200), loaded with GMPPNP (UniProt Q92730); test: ITC + SPR
[4] = target: Rnd2 GTPase (residues 1-227), loaded with GMPPNP (UniProt P52198); test: ITC + SPR
[5] = target: T1, Rnd2 GTPase (residues 1-227), loaded with GMPPNP (UniProt P52198 1-227); test: ITC
T1 sequence (looked up): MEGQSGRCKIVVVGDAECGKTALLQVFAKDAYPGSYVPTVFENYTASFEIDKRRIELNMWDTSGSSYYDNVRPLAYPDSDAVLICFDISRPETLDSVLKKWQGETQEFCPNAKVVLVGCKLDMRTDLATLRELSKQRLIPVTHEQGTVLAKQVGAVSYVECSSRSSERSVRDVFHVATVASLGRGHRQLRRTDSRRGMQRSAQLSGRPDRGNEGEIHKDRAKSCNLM

[6] = target: T2, Rnd1 GTPase Y114F (UniProt Q92730 5-200, Y114F); test: ITC
T2 sequence (looked up): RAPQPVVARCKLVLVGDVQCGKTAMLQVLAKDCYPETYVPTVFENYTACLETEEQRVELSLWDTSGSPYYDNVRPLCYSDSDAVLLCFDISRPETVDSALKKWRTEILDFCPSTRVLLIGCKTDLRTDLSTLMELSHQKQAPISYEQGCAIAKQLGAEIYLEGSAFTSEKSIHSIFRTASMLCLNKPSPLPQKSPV

[7] = target: T3, Rnd1 GTPase (residues 5-200), loaded with GMPPNP (UniProt Q92730 5-200); test: ITC
T3 sequence (looked up): T2 sequence (looked up) with F110Y

[8] = target: the molecule itself; test: SEC

Rnd1 GTPase, wild type, construct of this paper, sequence (Q92730 whole entry): as the sequence (Q92730 whole entry, the tested form may be a part) above

- Ka [1]: 1.8 10^5 M^-1
- Kd [1]: 5.5 µM
- ΔG [1]: -7.1 kcal/mol
Molecule: Plexin-B1 Rho GTPase binding domain (RBD), wild type, construct of this paper

Molecule: Plexin-B1 RBD as used in the quoted work (ref 39, Hota & Buck 2009)
- Kd ([2]; pH 6.4): ∼3.1 μM
- Kd ([2]; pH 6.8): ∼5.5 μM

- Kd [3]: > 50 µM
- Kd [4]: > 50 µM
Molecule: plexin-C1 Rho GTPase binding domain (RBD), residues 1198-1305 (from UniProt O60486 1198-1305) (domain or fragment)

- Ka [5]: 40000 M⁻¹
- Kd [5]: > 20 µM
- dH [5]: -0.2 kcal/mol
- Ka [6]: 180000 M⁻¹
- Kd [6]: 5.5 µM
- dH [6]: -2.5 kcal/mol
- Ka [7]: 180000 M⁻¹
- Kd [7]: 5.5 µM
- dH [7]: -6.7 kcal/mol
B1: plexin-B1 Rho GTPase binding domain (RBD), residues 1746-1852 (domain or fragment, human, UniProt O43157 1746-1852, looked up)
chain: YRPLTLNALLAVGPGAGEAQGVPVKVLDCDTISQAKEKMLDQLYKGVPLTQRPDPRTLDVEWRSGVAGHLILSDEDVTSEVQGLWRRLNTLQHYKVPDGATVALVPC

- Ka [5]: 90000 M⁻¹
- Kd [5]: 9.8 µM
- dH [5]: -1.6 kcal/mol
- Ka [7]: 70000 M⁻¹
- Kd [7]: 14.1 µM
- dH [7]: -1.4 kcal/mol
B2: plexin-B1 RBD L1815Y (domain or fragment)
chain: B1 chain with L70Y

- Ka [5]: 80000 M⁻¹
- Kd [5]: 20 µM
- dH [5]: -3.2 kcal/mol
B3: plexin-B1 RBD L1815K (domain or fragment)
chain: B1 chain with L70K

- Ka [5]: 70000 M⁻¹
- Kd [5]: 14.2 µM
- dH [5]: -1.6 kcal/mol
- Ka [7]: 190000 M⁻¹
- Kd [7]: 5.2 µM
- dH [7]: -3.1 kcal/mol
B4: plexin-D1 RBD Y1618L (domain or fragment)
chain: AKPRNLNVSFQGCGMDSLSVRAMDTDTLTQVKEKILEAFCKNVPYSQWPRAEDVDLEWFASSTQSLILRDLDDTSVVEDGRKKLNTLAHYKIPEGASLAMSLIDKKDNTLGRVKDLDTEKYFHLVL

- Ka [5]: 60000 M⁻¹
- Kd [5]: 16.6 µM
- dH [5]: -0.4 kcal/mol
B5: plexin-D1 Rho GTPase binding domain (RBD), residues 1553-1678 (domain or fragment, human, UniProt Q9Y4D7 1553-1678, looked up)
chain: B4 chain with L66Y

- Ka [5]: 130000 M⁻¹
- Kd [5]: 7.7 µM
- dH [5]: -1.4 kcal/mol
- Ka [7]: 50000 M⁻¹
- Kd [7]: 20 µM
- dH [7]: 1.3 kcal/mol
B6: plexin-D1 RBD S1614V/T1615A (domain or fragment)
chain: B4 chain with S62V, T63A, L66Y

- Ka [5]: 90000 M⁻¹
- Kd [5]: 10.7 µM
- dH [5]: -1.2 kcal/mol
- Ka [6]: 100000 M⁻¹
- Kd [6]: 10 µM
- dH [6]: -4.1 kcal/mol
- Ka [7]: 140000 M⁻¹
- Kd [7]: 7 µM
- dH [7]: -8 kcal/mol
B7: plexin-A2 Rho GTPase binding domain (RBD), residues 1490-1600 (domain or fragment, human, UniProt O75051 1490-1600, looked up)
chain: LIRQQIEYKTLILNCVNPDNENSPEIPVKVLNCDTITQVKEKILDAVYKNVPYSQRPRAVDMDLEWRQGRIARVVLQDEDITTKIEGDWKRLNTLMHYQVSDRSVVALVPK
- stoichiometry N [8]: 2

- Ka [5]: 90000 M⁻¹
- Kd [5]: 11.1 µM
- dH [5]: -0.6 kcal/mol
- Ka [7]: 100000 M⁻¹
- Kd [7]: 10 µM
- dH [7]: -1.9 kcal/mol
B8: plexin-C1 RBD K1267L (domain or fragment)
chain: TVALNVVFEKIPENESADVCRNISVNVLDCDTIGQAKEKIFQAFLSKNGSPYGLQLNEIGLELQMGTRQLELLDIDSSSVILEDGITKLNTIGHYEISNGSTIKVFKK

- Ka [5]: 120000 M⁻¹
- Kd [5]: 8.3 µM
- dH [5]: -1.5 kcal/mol
- Ka [7]: 360000 M⁻¹
- Kd [7]: 2.6 µM
- dH [7]: -3.4 kcal/mol
B9: plexin-C1 RBD T1264V/R1265V (domain or fragment)
chain: B8 chain with T67V, R68V, L70K

From publication PMC3138255 (The Journal of Biological Chemistry, 2011)
